According to PMC9922296, “Mechanistic insights into RNA surveillance by the canonical poly(A) polymerase Pla1 of the MTREC complex” (Nature Communications, 2023):

B1: C-terminal RRM domain of Pla1 (Pla1RRM, residues 352-566), purified [S. pombe] / Red1 residues 288-345 (Pla1 interaction region), purified [S. pombe] (parent)
chain 1: ISLPLLKQDDWLSSSKPFGSSTPNVVIEFDSDDDGDDFSNSKIEQSNLEKPPSNSENG
chain 2: DFFHRYKHYLTITAAAKTAEAQLKWAGLVESKLRHLVTRLELVDAIALAHPFNKGFDKVYNCSSEEEAQQVASGVTLEVAYESTDHEKLANDTVNEEKADNTESKADGSENGEKQIFPVYTTTCYIGLELEKKKGHPIKRLDISWPTQEFYELCKKWDKYDDTLMNVFIKNTKNTALPDEVFEPGEERPKATKKRSTADTAHSTEQLKRQKVSTA

Variants of: B1
Assay: ITC
Settings: with Red1 residues 288-345 (Pla1 interaction region)

Row | Variant | Kd [µM]
1 | chain 2 DFFHRYKHYLTITAAAETAEAQLKWAGLVESKLRHLVTRLELVDAIALAHPFNKGFDKVYNCSSEEEAQQVASGVTLEVAYESTDHEKLANDTVNEEKADNTESKADGSENGEKQIFPVYTTTCYIGLELEKKKGHPIKRLDISWPTQEFYELCKKWDKYDDTLMNVFIKNTKNTALPDEVFEPGEERPKATKKRSTADTAHSTEQLKRQKVSTA [chain 2 K17E] | 17.8
2 | chain 2 DFFHRYKHYLTITAAAKTAEAQLKWAGLVESKLRHLVTRLELVDAIALAHPFNKGFDKVYNCSSEEEAQQVASGVTLEVAYESTDHEKLANDTVNEEKADNTESKADGSENGEKQIFPVYTTTCYIGLELEKKKGHPIKRLDISWPTQEFYELCKKWDKYDDTLMNVFIKNTKNTALPDEVFEPGEERPKATKKRSTADTAHSTEQLEEQEVSTA [chain 2 K208E R209E K211E] | 2.8

Same assay, conditions: with C-terminal RRM domain of Pla1 (Pla1RRM, residues 352-566)

Row | Variant | Kd [µM]
3 | chain 1 ISLPLLKQDDWLSSSKPFGSSTPNVRIEFDSDDDGDDFSNSKIEQSNLEKPPSNSENG [chain 1 V26R] | 17.9
